Measurements from PMC10123111.

Test system: HaloTag-JF635-DDB2 (human)
Assay: single-molecule binding (optical tweezers, confocal)
Details: with eGFP-DDB1; from kon and koff; corrected lifetime 39.0 s; UV-C photoproducts (CPD and 6-4PP), random positions; Nuclear extracts in LUMICKS C-trap flow cell, lambda DNA tethered at about 10 pN; buffer, salt, pH and temperature not given in the material

Q: For UV-damaged lambda DNA (40 J/m2), which Kd is on record?
A: 0.4 nM
